Experimental data taken from publication PMC5105068.

Biological target: soluble γc protein (sγc), recombinant murine (mouse)
Assay: immunoprecipitation and immunoblot, SDS-PAGE under reducing and non-reducing conditions; culture supernatant of sγc expressing 293 T cells immunoprecipitated and immunoblotted with anti-γc ectodomain antibodies; resolved with (+ DTT) or without reduction

“soluble γc protein (sγc), recombinant murine (natural protein)” gave a stoichiometry N of 2.
